The results in this text go back to PMC10786401.

In experiment [1] the target is N67A mutant ZIKV capsid (C) protein as N-terminal MBP fusion (MBP-C_(N67A)) (Zika virus MR766). The experiment is described as follows: cross-linking; glutaraldehyde 0, 0.25, 0.5 and 1.0 mM; MBP-C protein 0.16 mg/ml in PBS, 50 uL, room temperature, 20 min, stopped with 50 mM Tris pH 8; SDS-PAGE, Coomassie blue.
In experiment [2] the target is Wild-type ZIKV capsid (C) protein as N-terminal MBP fusion (MBP-CWT) (Zika virus MR766). The description is as above.

Consider “N67A mutant ZIKV capsid (C) protein as N-terminal MBP fusion (MBP-C_(N67A)) (natural protein)”, for which the stoichiometry N (as a rule, the number of molecules, sites or subunits per partner or assembly) in experiment [1] came to 2. “Wild-type ZIKV capsid (C) protein as N-terminal MBP fusion (MBP-CWT) (natural protein)” yielded a stoichiometry N in experiment [2] of 2.
